The subject of the data set is Foxi1 (FOXI1). Put plainly: competition EMSA. The settings on record: unlabeled wt competitor; 5 mM HEPES pH 7.9, 100 mM KCl, 26% glycerol, 1.5 mM MgCl2, 0.2 mM EDTA, 0.5 mM DTT, 0.5 mM PMSF, 500 ng poly dI:dC, room temperature 15 min; 6% native gel …; scale: fold molar excess for effective competition.

The substance ATP6V0A4 Fk1-3 wt (-561/-547) had a competitor fold molar excess for effective competition of 10.

The values above are taken from PMC2637605.
